US20160355591A1

What was measured:
[1] = biological target: CD74 on dog lymphocytes and dog lymphoma cells (dog); experiment: flow cytometry, canine lymphoma aspirate 150836; none 4.5
[2] = biological target: CD74 on dog lymphocytes and dog lymphoma cells (dog); experiment: flow cytometry, dog lymphoma aspirate; none 4.48
[3] = biological target: CD74 on human cells (human) (UniProt P04233); experiment: indirect flow cytometry, Ramos cells, FITC-GAH Fc 2nd Ab; none 3.1
[4] = biological target: CD74 on human cells (human) (UniProt P04233); experiment: indirect FACS, SU-DHL-6 cells, FITC-GAH Fc 2nd Ab; none 4.6
[5] = biological target: CD74 on human cells (human) (UniProt P04233); experiment: indirect FACS, Raji cells, FITC-GAH Fc 2nd Ab; none 6.8
[6] = biological target: CD74 on human cells (human) (UniProt P04233); experiment: indirect flow cytometry, Daudi cells, FITC-GAH Fc 2nd Ab; none 3.2
[7] = biological target: CD74 on human cells (human) (UniProt P04233); experiment: indirect flow cytometry, SU-DHL-6 cells, FITC-GAH Fc 2nd Ab; none 4.6
[8] = biological target: CD74 on dog lymphocytes and dog lymphoma cells (dog); experiment: flow cytometry, dog lymphoma aspirate; none 3.24
[9] = biological target: CD74 on human cells (human) (UniProt P04233); experiment: indirect FACS, WSU-FSCCL cells, FITC-GAH Fc 2nd Ab; none 2.6
[10] = biological target: CD74 on human cells (human) (UniProt P04233); experiment: indirect flow cytometry, RL cells, FITC-GAH Fc 2nd Ab; none 2.4
[11] = biological target: CD74 on human cells (human) (UniProt P04233); experiment: indirect flow cytometry, Namalwa cells, FITC-GAH 2nd Ab; none 2.52
[12] = biological target: CD74 on dog lymphocytes and dog lymphoma cells (dog); experiment: flow cytometry, canine lymphoma aspirate 150836; none 3.2
[13] = biological target: CD74 on human cells (human) (UniProt P04233); experiment: indirect FACS, Ramos cells, FITC-GAH Fc 2nd Ab; none 3.1
[14] = biological target: CD74 on human cells (human) (UniProt P04233); experiment: indirect flow cytometry, WSU-FSCCL cells, FITC-GAH Fc 2nd Ab; none 2.7
[15] = biological target: CD74 on human cells (human) (UniProt P04233); experiment: indirect flow cytometry, Namalwa cells, FITC-GAH Fc 2nd Ab; none 2.6
[16] = biological target: CD74 on human cells (human) (UniProt P04233); experiment: indirect flow cytometry, Raji cells, FITC-GAH Fc 2nd Ab; none 6.9
[17] = biological target: CD74 on human cells (human) (UniProt P04233); experiment: indirect FACS, Daudi cells, FITC-GAH Fc 2nd Ab; none 3.1
[18] = biological target: CD74 on human cells (human) (UniProt P04233); experiment: indirect FACS, Namalwa cells, FITC-GAH Fc 2nd Ab; none 2.5

CD74 on human cells (human), sequence (P04233 whole entry): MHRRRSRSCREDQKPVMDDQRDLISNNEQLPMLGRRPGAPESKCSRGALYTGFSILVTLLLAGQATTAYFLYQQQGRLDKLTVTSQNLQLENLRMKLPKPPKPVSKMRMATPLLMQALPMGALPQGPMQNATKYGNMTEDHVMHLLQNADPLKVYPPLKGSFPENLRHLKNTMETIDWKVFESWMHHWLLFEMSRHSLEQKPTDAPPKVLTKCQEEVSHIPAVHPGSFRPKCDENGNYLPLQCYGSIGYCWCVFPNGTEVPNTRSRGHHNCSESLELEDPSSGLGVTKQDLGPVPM

## hLL1 (milatuzumab, humanized anti-CD74) (antibody)
[1]
  % Positive: 4.7%
[2]
  % Positive: 4.71%
[3]
  geometric mean fluorescence: 23.3
[4]
  geometric mean fluorescence: 17.3
[5]
  geometric mean fluorescence: 95.1
[6]
  geometric mean fluorescence: 48.8
[7]
  geometric mean fluorescence: 17.3
[8]
  mean FL: 3.33
[9]
  geometric mean fluorescence: 8.66
[10]
  geometric mean fluorescence: 7.9
[11]
  geometric mean fluorescence: 10.1
[12]
  mean FL: 3.3
[13]
  geometric mean fluorescence: 23.2
[14]
  geometric mean fluorescence: 8.7
[15]
  geometric mean fluorescence: 7.8
[16]
  geometric mean fluorescence: 95.1
[17]
  geometric mean fluorescence: 48.8
[18]
  geometric mean fluorescence: 7.81
